Bridges are numbered along the chain shown (N, C = ends). Where no end group is shown, it is not given here.
Columns and labels:
[1] = molecular target: T1, VEGF-A truncated nascent chain (amino-terminal 52 amino acid residues of human VEGF-A plus six histidine … (human)); assay: phage panning, released His-tagged nascent chain on Ni-NTA beads, DTT elution; selection only
T1 construct: Translated in vitro in wheat germ lysate without stop codon; also called short VEGF-A nascent chains; bait polypeptide
T1 chain: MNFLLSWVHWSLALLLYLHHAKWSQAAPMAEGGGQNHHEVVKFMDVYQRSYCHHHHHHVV

[2] = molecular target: T2, VEGF-A truncated nascent chain (52 amino-terminal residues of VEGF-A plus His6 and two valines) translated in … (human, ε-labelled biotinylated lysine incorporated from Transcend tRNA (positions not stated)); assay: phage panning, biotinylated ribosome-bound nascent chain in streptavidin wells; selection only
T2 construct: in one setting the ribosomes were dissociated with RNAse ONE before elution; also called VEGF-A nascent chains; VEGF-A-translating ribosomes
T2 chain: T1 chain

[3] = molecular target: T1, VEGF-A truncated nascent chain …; assay: phage panning by co-sedimentation with ribosome-bound nascent chain, with subtraction on non-translating ribosomes; selection only

B1: SPRPSLS (SEQ ID NO:15), displayed on M13 phage (peptide)
chain: CSPRPSLSC
modifications: disulfide 1-9
notes: From the Ph.D.-C7C library; on phage; not shown: M13 pIII minor coat protein, peptide at its amino-terminus
Question: Does B1 bind [1]?
Answer: binds

B2: DYPWPLP (SEQ ID NO: 40), displayed on M13 phage (peptide)
chain: CDYPWPLPC
modifications: disulfide 1-9; not fully specified
notes: as for B1
Question: Does B2 bind [2]?
Answer: binds

B3: NASRTTL (SEQ ID NO: 48), displayed on M13 phage (peptide)
chain: CNASRTTLC
modifications: disulfide 1-9; not fully specified
notes: as for B1
Question: Does B3 bind [2]?
Answer: binds

B4: SVSGSPS (SEQ ID NO:6), displayed on M13 phage (peptide)
chain: CSVSGSPSC
modifications: disulfide 1-9; also: displayed on M13 phage, fused to pIII
notes: as for B1
Question: Does B4 bind [1]?
Answer: binds

B5: LPPLQRL (SEQ ID NO: 19), displayed on M13 phage (peptide)
chain: CLPPLQRLC
modifications: disulfide 1-9; not fully specified
notes: as for B1
Question: Does B5 bind [2]?
Answer: binds

B6: SPSLLPA (SEQ ID NO:11), displayed on M13 phage (peptide)
chain: CSPSLLPAC
modifications: disulfide 1-9
notes: as for B1
Question: Does B6 bind [1]?
Answer: binds

B7: AFPGMKA (SEQ ID NO: 18), displayed on M13 phage (peptide)
chain: CAFPGMKAC
modifications: disulfide 1-9; not fully specified
notes: as for B1
Question: Does B7 bind [2]?
Answer: binds

B8: NLSSSWI (SEQ ID NO:9), displayed on M13 phage (peptide)
chain: CNLSSSWIC
modifications: disulfide 1-9
notes: as for B1
Question: Does B8 bind [1]?
Answer: binds

B9: FLFRLF (SEQ ID NO:2), displayed on M13 phage (peptide)
chain: CFLFRLFC
modifications: disulfide 1-8; not fully specified
notes: From the Ph.D.-C7C library; on phage; A hexapeptide; not shown: M13 pIII minor coat protein, peptide at its amino-terminus
Question: Does B9 bind [1]?
Answer: binds

B10: SSTLHPS (SEQ ID NO: 31), displayed on M13 phage (peptide)
chain: CSSTLHPSC
modifications: disulfide 1-9; also: displayed on M13 phage, fused to pIII
notes: as for B1
Question: Does B10 bind [2]?
Answer: binds

B11: SRSALES (SEQ ID NO: 46), displayed on M13 phage (peptide)
chain: CSRSALESC
modifications: disulfide 1-9
notes: as for B1
Question: Does B11 bind [2]?
Answer: binds

B12: HAWTFNS (SEQ ID NO: 22), displayed on M13 phage (peptide)
chain: CHAWTFNSC
modifications: disulfide 1-9; not fully specified
notes: as for B1
Question: Does B12 bind [2]?
Answer: binds

B13: PSALAFY (SEQ ID NO: 47), displayed on M13 phage (peptide)
chain: CPSALAFYC
modifications: disulfide 1-9
notes: as for B1
Question: Does B13 bind [2]?
Answer: binds

B14: PHTRGFM (SEQ ID NO: 33), displayed on M13 phage (peptide)
chain: CPHTRGFMC
modifications: disulfide 1-9
notes: as for B1
Question: Does B14 bind [2]?
Answer: binds

B15: SPHLIPS (SEQ ID NO: 27), displayed on M13 phage (peptide)
chain: CSPHLIPSC
modifications: disulfide 1-9
notes: as for B1
Question: Does B15 bind [2]?
Answer: binds

B16: PMTSPPS (SEQ ID NO:3), displayed on M13 phage (peptide)
chain: CPMTSPPSC
modifications: disulfide 1-9
notes: as for B1
Question: Does B16 bind [1]?
Answer: binds

B17: HPMFWPI (SEQ ID NO: 29), displayed on M13 phage (peptide)
chain: CHPMFWPIC
modifications: disulfide 1-9; not fully specified
notes: as for B1
Question: Does B17 bind [2]?
Answer: binds

B18: SYPLRPP (SEQ ID NO: 23), displayed on M13 phage (peptide)
chain: CSYPLRPPC
modifications: disulfide 1-9; also: displayed on M13 phage, fused to pIII
notes: as for B1
Question: Does B18 bind [2]?
Answer: binds

B19: NPISLHL (SEQ ID NO:4), displayed on M13 phage (peptide)
chain: CNPISLHLC
modifications: disulfide 1-9
notes: as for B1
Question: Does B19 bind [1]?
Answer: binds

B20: PANFGPS (SEQ ID NO: 16), displayed on M13 phage (peptide)
chain: CPANFGPSC
modifications: disulfide 1-9
notes: as for B1
Question: Does B20 bind [2]?
Answer: binds

B21: HALSSRT (SEQ ID NO: 32), displayed on M13 phage (peptide)
chain: CHALSSRTC
modifications: disulfide 1-9; not fully specified
notes: as for B1
Question: Does B21 bind [2]?
Answer: binds

B22: EASSSRA (SEQ ID NO: 45), displayed on M13 phage (peptide)
chain: CEASSSRAC
modifications: disulfide 1-9; not fully specified
notes: as for B1
Question: Does B22 bind [2]?
Answer: binds

B23: SLNSDLF (SEQ ID NO: 26), displayed on M13 phage (peptide)
chain: CSLNSDLFC
modifications: disulfide 1-9
notes: as for B1
Question: Does B23 bind [2]?
Answer: binds

B24: HPMFPLS (SEQ ID NO: 28), displayed on M13 phage (peptide)
chain: CHPMFPLSC
modifications: disulfide 1-9; not fully specified
notes: as for B1
Question: Does B24 bind [2]?
Answer: binds

B25: LGALSHT (SEQ ID NO:14), displayed on M13 phage (peptide)
chain: CLGALSHTC
modifications: disulfide 1-9; not fully specified
notes: as for B1
Question: Does B25 bind [1]?
Answer: binds

B26: PLHARLP (SEQ ID NO:1), displayed on M13 phage (peptide)
chain: CPLHARLPC
modifications: disulfide 1-9
notes: as for B1
Question: Does B26 bind [3]?
Answer: binds

B27: SPSTSSR (SEQ ID NO: 34), displayed on M13 phage (peptide)
chain: CSPSTSSRC
modifications: disulfide 1-9
notes: as for B1
Question: Does B27 bind [2]?
Answer: binds

B28: LTRPSPS (SEQ ID NO:10), displayed on M13 phage (peptide)
chain: CLTRPSPSC
modifications: disulfide 1-9; not fully specified
notes: as for B1
Question: Does B28 bind [1]?
Answer: binds

B29: LPVSSSS (SEQ ID NO: 24), displayed on M13 phage (peptide)
chain: CLPVSSSSC
modifications: disulfide 1-9; not fully specified
notes: as for B1
Question: Does B29 bind [2]?
Answer: binds

B30: SSPLLGR (SEQ ID NO:12), displayed on M13 phage (peptide)
chain: CSSPLLGRC
modifications: disulfide 1-9
notes: as for B1
Question: Does B30 bind [1]?
Answer: binds

B31: EPASSRH (SEQ ID NO: 37), displayed on M13 phage (peptide)
chain: CEPASSRHC
modifications: disulfide 1-9; not fully specified
notes: as for B1
Question: Does B31 bind [2]?
Answer: binds

B32: LPRPLHS (SEQ ID NO: 42), displayed on M13 phage (peptide)
chain: CLPRPLHSC
modifications: disulfide 1-9; not fully specified
notes: as for B1
Question: Does B32 bind [2]?
Answer: binds

B33: HALPAPD (SEQ ID NO: 49), displayed on M13 phage (peptide)
chain: CHALPAPDC
modifications: disulfide 1-9; not fully specified
notes: as for B1
Question: Does B33 bind [2]?
Answer: binds

B34: SGSSPWH (SEQ ID NO:7), displayed on M13 phage (peptide)
chain: CSGSSPWHC
modifications: disulfide 1-9
notes: as for B1
Question: Does B34 bind [1]?
Answer: binds

B35: WASQAHP (SEQ ID NO: 30), displayed on M13 phage (peptide)
chain: CWASQAHPC
modifications: disulfide 1-9; also: displayed on M13 phage, fused to pIII
notes: as for B1
Question: Does B35 bind [2]?
Answer: binds

B36: PVAPSTH (SEQ ID NO:13), displayed on M13 phage (peptide)
chain: CPVAPSTHC
modifications: disulfide 1-9
notes: as for B1
Question: Does B36 bind [1]?
Answer: binds

B37: LTLPNRT (SEQ ID NO: 17), displayed on M13 phage (peptide)
chain: CLTLPNRTC
modifications: disulfide 1-9; not fully specified
notes: as for B1
Question: Does B37 bind [2]?
Answer: binds

B38: TASSVKL (SEQ ID NO:5), displayed on M13 phage (peptide)
chain: CTASSVKLC
modifications: disulfide 1-9; also: displayed on M13 phage, fused to pIII
notes: as for B1
Question: Does B38 bind [1]?
Answer: binds

B39: PPPFLPL (SEQ ID NO: 20), displayed on M13 phage (peptide)
chain: CPPPFLPLC
modifications: disulfide 1-9
notes: as for B1
Question: Does B39 bind [2]?
Answer: binds

B40: PLHPPQP (SEQ ID NO: 41), displayed on M13 phage (peptide)
chain: CPLHPPQPC
modifications: disulfide 1-9
notes: as for B1
Question: Does B40 bind [2]?
Answer: binds

B41: VSGSSPQ (SEQ ID NO: 43), displayed on M13 phage (peptide)
chain: CVSGSSPQC
modifications: disulfide 1-9; also: displayed on M13 phage, fused to pIII
notes: as for B1
Question: Does B41 bind [2]?
Answer: binds

B42: LALSAAR (SEQ ID NO: 25), displayed on M13 phage (peptide)
chain: CLALSAARC
modifications: disulfide 1-9; not fully specified
notes: as for B1
Question: Does B42 bind [2]?
Answer: binds

B43: EIRTPSV (SEQ ID NO: 21), displayed on M13 phage (peptide)
chain: CEIRTPSVC
modifications: disulfide 1-9; not fully specified
notes: as for B1
Question: Does B43 bind [2]?
Answer: binds

B44: TLSHTRT (SEQ ID NO: 35), displayed on M13 phage (peptide)
chain: CTLSHTRTC
modifications: disulfide 1-9; also: displayed on M13 phage, fused to pIII
notes: as for B1
Question: Does B44 bind [2]?
Answer: binds

B45: HPSSTHQ (SEQ ID NO:8), displayed on M13 phage (peptide)
chain: CHPSSTHQC
modifications: disulfide 1-9; not fully specified
notes: as for B1
Question: Does B45 bind [1]?
Answer: binds

B46: FPATAAS (SEQ ID NO: 36), displayed on M13 phage (peptide)
chain: CFPATAASC
modifications: disulfide 1-9; not fully specified
notes: as for B1
Question: Does B46 bind [2]?
Answer: binds

B47: PSLFPSM (SEQ ID NO: 44), displayed on M13 phage (peptide)
chain: CPSLFPSMC
modifications: disulfide 1-9
notes: as for B1
Question: Does B47 bind [2]?
Answer: binds

Reference: patent EP2345737A1 (Harant, Hanna, dated 2011)
